Usually Km stands for the concentration of substrate that gives half-maximal velocity. The term residual activity denotes the share of the control activity or signal that is left under treatment. A higher residual activity goes with a small loss of activity.

The results in this text go back to patent US6413750B1, “(R)-specific alcohol dehydrogenases from lactobacillus with improved catalytic activity using an NAD+ substrate” (Forschungszentrum Jülich GmbH, priority 1998, dated 2002).

Where “and” joins values, the source holds several entries; their conditions need not be identical. Equal values may be shown once.

Data set [1] is described as follows: Kinetic data for the reduced coenzyme NADPH (reduction of acetophenone). The format is biochemical, Lactobacillus brevis. The protocol: (§1) In this N-terminal sequence certain basicity-relevant amino acids were exchanged by established genetic engineering devices and the changes in the acceptance of NAD^+ were determined basically with two values, the KM value and the kcat value. The KM value (Michaelis-Menten-constant [Mol/L]) can be considered to be a measure for the affinity of the co-enzyme to the enzyme. Preferably, the KM value is as small as possible. The kcat value (Mol formed product/mol enzyme×sec) is a measure for the conversion, it should be as high as possible. A combined value, which takes both values into consideration is the quotient kcat/KM. This should be preferably≧20 for obtaining an enzyme suitable for preparative purposes.
(§2) The successive changes of the mutated enzymes were proven by the determination of the kinetic parameters for the co-enzyme NAD^+, NAPD^+, NADH and NADPH by means of the corresponding kinetic parameters for the ketone substrate (acetophenone) or, respectively, by the oxidation reaction for the alcohol (phenylethanol). Furthermore, maintenance of the enantioselectivety was examined using the example of reduction of acetophenon. In addition, temperature-optima and stability, pH optima and stability and the iso-electric point were determined and compared with the corresponding data for the non-mutated wild-type enzyme.

Data set [2] can be described thus: Kinetic data for the oxidized coenzyme NADP+ (oxidation of phenylethanol). The format is biochemical, Lactobacillus brevis. The protocol: as §1, §2
Data set [3] is described as follows: Kinetic data for the oxidized coenzyme NAD+ (oxidation of phenylethanol). The data set is classed as biochemical, Lactobacillus brevis. The following applies: for Kcat value / Km: coenzyme NAD+. The protocol:
as §1, §2

A short description of data set [4]: Kinetic data for the reduced coenzyme NADH (reduction of acetophenone). The format is biochemical, Lactobacillus brevis. The protocol:
as §1, §2

Data set [5] can be described thus: Temperature stability (residual activity after incubation at various temperatures). The data set is classed as physicochemical, Lactobacillus brevis.
Data set [6] in a line: Batchwise reduction of acetophenone with coenzyme regeneration, enantioselectivity by gas chromatography. The format is biochemical, Lactobacillus brevis. The protocol: In this case, 960 μl triethanolamine buffer, 50 mM, pH 7.0 with 11 mM acetophenon, 10 μl magnesium chloride (100 mM start solution); 25 μl NADP^+ (10 mM start solution), 9.4μl isopropanol, and 1 U alcohol dehydrogenase were used.

Data set [7] is described as follows: Isoelectric point by isoelectric focussing. The format is physicochemical, Lactobacillus brevis. Conditions: pH. The protocol: The isoelectric point (IP) is determined by isoelectric focussing (IEF) to be at pH 4.28. This is noteworthy particularly in comparison with the mutant 2 (see example 4). With the mutant 2, the IP is determined at 4.65 despite the fact that, in each of the two mutants, the same type of aminoacid (lysine) was exchanged; in mutant 1, it was the lysine-45 (to isoleucine) and in mutant 2, it was the lysine-48 (to methionine).

The nature of data set [8]: pH optimum of enzyme activity. The format is biochemical, Lactobacillus brevis. The following applies: for activity at pH 8.0 compared with optimum: oxidative direction. The protocol: For determining the optimal pH value, the following buffers were used: pH 4.5=Na-acetate; pH 5.0 and 5.5=Na-acetate; pH 6.0 and 6.5=Kpi or MES; pH 7.0 and 7.5=Kpi or TEA; pH 8.0 and 8.6=Tris; pH 9.0=Bicine. All buffers were used in a concentration of 100 mM. For the determination of the reductive reaction 10 mM acetophenon was added. The concentrations of NADP/NAD were each 2 mM. The concentration of NADH/NADPH was each 0.25 mM. For measurement, 970 μl of the respective buffer solution, which already included substrate at the desired concentration, was mixed with 20 μl of the start solution with the desired co-enzyme. The reaction was started with 10 μl enzyme. the dilution factor depended on the activity, it was chosen in the range of 1 to 3 U/ml.

Data set [9] can be described thus: Temperature optimum of enzyme activity. The format is biochemical, Lactobacillus brevis. The protocol:
The optimal temperature was determined for reductive reactions at pH 7.0 with the two coenzymes NADH and NADPH to be 55° C. in both cases. The temperature stability was determined as residual activity after 25 h incubation at various temperatures. At 37° C., still 95% reactivity was obtained; at 42° C. still 34%.

The nature of data set [10]: pH stability (residual activity after incubation at various pH values). The data set is classed as physicochemical, Lactobacillus brevis. The protocol:
The pH stability is expressed as residual activity after a 25 hour incubation period at various pH values, the same buffers were used as for the determination of the pH optima. 45 μl of the respective buffer were mixed with 5 μl of the enzyme solution and incubated at room temperature. Samples were taken after 30 min, 60 min., 6 hours and 25 hours.

Data set [11] can be described thus: Standard enzyme test with crude extract (acetophenone reduction / phenyl ethanol oxidation). The format is biochemical, Lactobacillus brevis. The protocol: In the standard enzyme test for reduction of acetophenone, with NADPH 0.032 U/mg (0.318 U/ml, 9.75 mg protein/ml) and with NADH 0.47 U/mg (4.61 U/ml; 9.75 mg protein/ml) were measured. In the reverse reaction (alcohol-oxidation) with phenyl ethanol, with NAD^+ a specific activity of 1.1 U/mg (10.8 U/ml); 9.75 protein/ml) were measured.

[12] abbreviates: oxidation of phenyl ethanol with NAD+.
Where [13] appears, read: reduction of acetophenone with NADH.
Where [14] appears, read: reduction of acetophenone with NADPH.

With “mutant 1/1: L. brevis ADH mutant with exchanges A9G, R38L, K45M (SEQ ID NO 17) (SNRLDGKVGIITGGTLGIGLAIATKFVEEGAKVMITGLHSDVGEMAAKSV; OTHER INFORMATION: mutant 1/1)”, the Kcat value in [1] turned out to be 166.4 s⁻¹; in data set [2], 33.3 s⁻¹; in [3] it was 33.3 s⁻¹; in data set [4] it was 10.3 s⁻¹. In addition, the Km in data set [1] is 352 µM; in data set [2], 502 µM; in data set [3], 500 µM and 502 µM; in [4], 188 µM. In data set [3] (kcat/KM NAD+ as percent of kcat/KM NADP+), the “selectivity (kcat/KM) for NAD+ in comparison with the value for NADP+” value was 100%. Also, the values for the residual activity in data set [5] (25 h incubation at 25° C.) and in [5] (25 h incubation at 30° C.) were 100% and 59%, respectively. Besides, the “enantioselectivity: isomer of phenylethanol formed” value in data set [6] is “only the (R) isomere of phenyl ethanol”. Besides, the isoelectric point in [7] is recorded as 4.85.
“mutant 2/2: L. brevis ADH mutant with exchanges A9G, R38L, H39L, K48M (SEQ ID NO 19) (SNRLDGKVGIITGGTLGIGLAIATKFVEEGAKVMITGLLSDVGEKAAMSV; OTHER INFORMATION: mutant 2/2)”: the entries for the “activity at pH 8.0 compared with optimum” value in [8] (NAD+) and in data set [8] (NADP+) were 61% and 77%, respectively. In addition, the “activity at pH 7.0 compared with optimum” value in [8] (reduction of acetophenone with NADH, pH 7.0) turned out to be 6%. For the same substance, in data set [9] (NADH, 60° C.), the “activity at 60° C. relative to optimum” value is on record as 70%. The “activity at 50° C. relative to optimum” value in data set [9] (NADPH, measured at 50° C.) is given as 95%. For the same substance, the Kcat value came to 101.1 s⁻¹ in data set [1], 30.8 s⁻¹ in data set [2], 23.2 s⁻¹ in [3] and 33.6 s⁻¹ in data set [4]. Besides, the Km in [1] is 370 µM; in data set [2], 143 µM; in data set [3], 960 µM and 955 µM; in data set [4], ~70 µM and 70 µM. In addition, the residual activity in [10] (6 h storage at pH 7.0) is listed as 100%; in data set [10] (6 h storage at pH 8.5), 58%; in [5] (storage 6 h at 30° C.) it was 67%; in data set [5] (storage 6 h at 37° C.), 7%. In data set [6], the “enantioselectivity: isomer of phenylethanol formed” value was “the (R) isomere of phenylethanol only”. The isoelectric point result in data set [7] was “about 4.47”.
On to “mutant 2/3: L. brevis ADH mutant with exchanges A9G, G37D, R38L, K48M (SEQ ID NO 20)”, for which the activity in [11] (setting [12]) is 10.8 U/ml; in data set [11] (oxidation of phenyl ethanol with NADP+) it was “no activity”; in [11] (setting [13]) it was 4.61 U/ml; in [11] (setting [14]) it was 0.318 U/ml. Also, the results for the specific activity in data set [11] (setting [12]), in data set [11] (setting [13]) and in data set [11] (setting [14]) were 1.1 U/mg, 0.47 U/mg and 0.032 U/mg, respectively.
